Assay [1] has as its target recombinant His-tagged cynomolgus PD-1 (Acro Biosystems) (cynomolgus) (UniProt B0LAJ3). Nature of the assay: SPR Carterra LSA.
Assay [2] addresses recombinant His-tagged human PD-1 (Acro Biosystems) (human) (UniProt Q15116). Nature of the assay: SPR Carterra LSA.

Among the data in patent US20240076343A1 are Kd, koff and kon values, retold here.

recombinant His-tagged cynomolgus PD-1 (Acro Biosystems) (cynomolgus), sequence (B0LAJ3 entry or part of it limits assumed): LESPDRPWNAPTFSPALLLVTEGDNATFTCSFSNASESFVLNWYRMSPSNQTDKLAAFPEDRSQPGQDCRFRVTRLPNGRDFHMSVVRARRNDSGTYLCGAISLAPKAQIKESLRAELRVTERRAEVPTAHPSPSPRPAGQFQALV
recombinant His-tagged human PD-1 (Acro Biosystems) (human), sequence (Q15116 25-167 limits assumed): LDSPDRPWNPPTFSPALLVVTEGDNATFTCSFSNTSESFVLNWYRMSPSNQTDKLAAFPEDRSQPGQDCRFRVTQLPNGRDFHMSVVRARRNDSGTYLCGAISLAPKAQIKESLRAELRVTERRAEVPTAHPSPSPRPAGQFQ

On to Anti-PD-1 clone MIH4 mIgG1 (antibody), for which, in assay [1], the Kd was found to be 891 nM, the koff was 0.12 s⁻¹ and the kon was determined as 130000 M⁻¹ s⁻¹. For the same substance, in assay [2], the Kd is 10 nM, the koff was 0.0014 s⁻¹ and the kon was determined as 130000 M⁻¹ s⁻¹.
Consider “Anti-hPD-1 clone EH12.2H7-mIgG1 (antibody)”, for which, in assay [1], the Kd came out at 85 nM, the off-rate constant (koff) is 0.0073 s⁻¹ and the kon came out at 86000 M⁻¹ s⁻¹. In assay [2], the Kd is 19 nM, the koff worked out at 0.0022 s⁻¹ and the kon worked out at 110000 M⁻¹ s⁻¹.
In the case of Anti-hPD-1 clone J105-mIgG1 (antibody), in assay [1], the Kd amounted to 1300 nM, the koff is 0.066 s⁻¹ and the kon came to 50000 M⁻¹ s⁻¹. In assay [2], the equilibrium dissociation constant (Kd) amounted to 86 nM, the koff is 0.0053 s⁻¹ and the on-rate (kon) came out at 62000 M⁻¹ s⁻¹.
As to KEYTRUDA ® (pembrolizumab) (antibody), the Kd in assay [1] stood at 0.575 nM.
With OPDIVO ® (nivolumab) (antibody), the Kd in assay [1] is 6.4 nM.
